Data as given in patent EP2119770B1, “Production of alpha-oxyfunctionalized carbonyl compounds” (priority 2008, dated 2009).

What was measured:
C=CC(C)=O = assay: Enzyme kinetics (Lineweaver-Burk plots), Gox2107; type: biochemical, Gluconobacter oxydans; settings: other: Gox2107; substrate 0.025 to 10 mM
Experimental: (§1) Determination of pH and temperature optima and enzyme kinetics: The optimum pH for enzyme activities was determined by a modified method of Salusjärvi, T. et al., Appl. Microbiol. Biotechnol. 65:306-314 (2004) using the following buffer system (50 mM final concentration each): sodium acetate pH 4.5 - 6.5, potassium phosphate pH 6.5 - 8.0, Tris-HCl pH 8.0 - 10. Temperature optima for the biocatalysts were determined under standard reaction conditions at temperatures ranging from 20 - 80 °C. The Michaelis constant (Km) for the proteins was determined from purified enzyme by Lineweaver-Burk plots. Assays were performed at optimum pH for each enzyme and at 30 °C using the top substrate and a targeted substrate. The Km for each substrate was calculated using concentrations of 0.0025 to 10 mM, and the Km NAD(P)H and NAD(P) was calculated using concentrations of 0.01 to 0.5 mM
(§2) The Michaelis constants were determined from purified enzyme by Lineweaver-Burk plots. The Km and Vmax values for the substrates were calculated using concentrations of 0.025 to 10 mM, The optimal pH values and temperatures for enzyme activities are also shown in Tab. 11. Tab. 11: Summary of kinetic parameters

O=C1C=CC(=O)c2ccccc21 = assay: Enzyme kinetics (Lineweaver-Burk plots), Gox2107; type: biochemical, Gluconobacter oxydans; settings: other: Gox2107; substrate 0.025 to 10 mM
Experimental: as §1, §2

CCC(=O)C(C)=O = assay: Enzyme kinetics (Lineweaver-Burk plots), Gox0644; type: biochemical, Gluconobacter oxydans; settings: other: Gox0644; substrate 0.025 to 10 mM
Experimental: as §1, §2

O=CC(=O)c1ccccc1 = assay: Enzyme kinetics (Lineweaver-Burk plots), Gox0644; type: biochemical, Gluconobacter oxydans; settings: other: Gox0644; substrate 0.025 to 10 mM
Experimental: as §1, §2

[1] = substrate: C=CC(C)=O; assay: purified protein, by the assay type; settings: other: Gox0502; substrate 0.025 to 10 mM
[2] = substrate: CC(=O)C=O; assay: Enzyme kinetics (Lineweaver-Burk plots), Gox1615; type: biochemical, Gluconobacter oxydans; settings: other: Gox1615; substrate 0.025 to 10 mM
Experimental: as §1, §2

[3] = substrate: CCCC(=O)C(C)=O; assay: Enzyme kinetics (Lineweaver-Burk plots), Gox1615; type: biochemical, Gluconobacter oxydans; settings: other: Gox1615; substrate 0.025 to 10 mM
Experimental: as §1, §2

[4] = substrate: CC=O; assay: Enzyme kinetics (Lineweaver-Burk plots), aldehyde dehydrogenase Gox1122; type: biochemical, Gluconobacter oxydans
Experimental: Determination of pH and temperature optima and enzyme kinetics: The optimum pH for enzyme activities was determined by a modified method of Salusjärvi, T. et al., Appl. […] Temperature optima for the biocatalysts were determined under standard reaction conditions at temperatures ranging from 20 - 80 °C. The Michaelis constant (Km) for the proteins was determined from purified enzyme by Lineweaver-Burk plots. Assays were performed at optimum pH for each enzyme and at 30 °C using the top substrate and a targeted substrate.

[5] = substrate: NC(=O)c1ccc[n+]([C@@H]2O[C@H](COP(=O)(O)OP(=O)(O)OC[C@H]3O[C@@H](n4cnc5c(N)ncnc54)[C@H](OP(=O)(O)O)[C@@H]3O)[C@@H](O)[C@H]2O)c1; assay: purified protein, by the assay type; settings: other: Gox1122; for the cofactor NADP
[6] = substrate: C=CC(C)=O; assay: Enzyme kinetics (Lineweaver-Burk plots), Gox2684; type: biochemical, Gluconobacter oxydans; settings: other: Gox2684; substrate 0.025 to 10 mM
Experimental: as §1, §2

[7] = other: Gox1122, aldehyde concentrations from 0.0025 to 10 mM
[8] = other: Tab. 11, Gox1122, substrate 0.025 to 10 mM

Gox2107 (Gluconobacter oxydans 621H)
Km (C=CC(C)=O): 3800 µM | Vmax (C=CC(C)=O): 119 µmol/min/mg | Km (O=C1C=CC(=O)c2ccccc21): 10 µM | Vmax (O=C1C=CC(=O)c2ccccc21): 217 U/mg protein

Gox0644 (Gluconobacter oxydans 621H)
Km (CCC(=O)C(C)=O): 5600 µM | Vmax (CCC(=O)C(C)=O): 79.0 µmol/min/mg | Km (O=CC(=O)c1ccccc1): 4700 µM | Vmax (O=CC(=O)c1ccccc1): 93.0 µmol/min/mg

B1: Gox0502 (Gluconobacter oxydans 621H) (protein)
chain: MPTLFDPIDFGPIHAKNRIVMSPLTRGRADKEAVPTPIMAEYYAQRASAGLIITEATGISREGLGWPFAPGIWSDAQVEAWKPIVAGVHAKGGKIVCQLWHMGRMVHSSVTGTQPVSSSATTAPGEVHTYEGKKPFEQARAIDAADISRILNDYENAARNAIRAGFDGVQIHAANGYLIDEFLRNGTNHRTDEYGGVPENRIRFLKEVTERVIAAIGADRTGVRLSPNGDTQGCIDSAPETVFVPAAKLLQDLGVAWLELREPGPNGTFGKTDQPKLSPQIRKVFLRPLVLNQDYTFEAAQTALAEGKADAIAFGRKFISNPDLPERFARGIALQPDDMKTWYSQGPEGYTDYPSATSGPN
Km [1]: 100 µM | Vmax [1]: 21.0 µmol/min/mg

B2: Gox1615 (Gluconobacter oxydans 621H) (protein)
chain: MASDTIRIPGIDTPLSRVALGTWAIGGWMWGGPDDDNGVRTIHAALDEGINLIDTAPVYGFGHSEEIVGRALAEKPNKAHVATKLGLHWVGEDEKNMKVFRDSRPARIRKEVEDSLRRLRVETIDLEQIHWPDDKTPIDESARELQKLHQDGKIRALGVSNFSPEQMDIFREVAPLATIQPPLNLFERTIEKDILPYAEKHNAVVLAYGALCRGLLTGKMNRDTTFPKDDLRSNDPKFQKPNFEKYLAAMDEFEKLAEKRGKSVMAFAVRWVLDQGPVIALWGARKPGQVSGVKDVFGWSLTDEEKKAVDDILARHVPNPIDPTFMAPPARD
Km [2]: 3800 µM | Vmax [2]: 22.0 µmol/min/mg | Km [3]: 3200 µM | Vmax [3]: 6.0 µmol/min/mg

B3: Gox1122 (Gluconobacter oxydans 621H) (protein)
chain: MAYATINPYTGETLKTFPEATDQEVQTALTEAYDAFKSWRHTPFAERAKIMTAAANILRRDIDKYSKLLTLEMGKIYAEAKAETILSAEIFEYYAKNAEELLKAEKLPVADPKEGEAVLIHQPQGIVFAIEPWNFPFYQIARIIAPQLSAGNTVILKHASNVPQCAAAFDDLMKEAGLPKGGFRNLYAARHHTETILKDPRVCGVALTGSEGAGAVVAGIAAQALKKSTMELGGSDAFLVLDDADLEKTAKWAAFGRHWNAGQVCVSAKRLIVADAVYDRFVELYKAEVAKLIPGDPMDPKTTLAPLSSQKAADDLKAQVEEAKKHGAVVEAIGPSVPEKGAFFQPLLMTNLHENNEARLWEFFGPVTQLYRAKDDADAIRIANDSPFGLGGSVFTKDTQRGVKVAEQIYTGMVYINHPTMVKADLPFGGVARSGYGRELIGLGIKEFVNHKLIDVVDIDAPF
Km [4, 7]: 255 µM | Vmax [4, 7]: 196 U/mg protein | Km [4, 8]: 200 µM | Vmax [4, 8]: 196 µmol/min/mg | Km [5]: 73 µM

B4: Gox2684 (Gluconobacter oxydans 621H) (protein)
chain: MTSLFEPIELGSIYAKNRILMAPLTRGRGTRDHVPTPIMAEYYAQRAGAGLIISEATGISREGLGWPYAPGLWSQEQVEAWKPITAAVHAKGGKIVAQLWHMGRMVHSSVTGQQPVSCSATKAPEALHTYDGKQAPEVARPLTKEDIARILNDYENAARNALQAGFDGVQIHAANGYLIDEFLRDGTNHRSDEYGGSPENRIRFLREVTERVIATIGAHKTSVRLSPNGDTVGCIDSHPEQVFVPAAKLLNDLDIAFLELREPGPNGTFGKTDQPKLHGPIREVFRKPLVLNQDYTREEAIETVATGVADAISFGRPFLANPDLVRRLEDNLPQNKDDIRTWYSQGAEGYTDYPLAR
Km [6]: 300 µM | Vmax [6]: 11.3 µmol/min/mg
